Measurements from US5804445, “High affinity mutants of nuclear factor-interleukin 6 and methods of use therefor” (Board of Regents, The University of Texas System).

Experiments:
[1] = biological target: NF-IL6 TCD WT (tryptic core domain, aa 266-345) (UniProt P17676); assay: EMSA; conditions: CITED Brasier and Kumar 1994; cited from earlier work
[2] = tested on: NF-IL6 full length (24-345); assay: EMSA; conditions: CITED Brasier and Kumar 1994; indistinguishable from TCD WT; cited from earlier work
NF-IL6 TCD S271A = NF-IL6 TCD S271A (UniProt P17676 SEQ:2-81, S271A); assay: EMSA; binding specificity indistinguishable from the other TCD peptides; conditions: tags: untagged, initiator Met removed; chain copies: 2 inferred; label: 32P fill-in; BamHI/BglII overhangs
NF-IL6 TCD V267A = NF-IL6 TCD V267A (UniProt P17676 SEQ:2-81, V267A); assay: as above; conditions: tags: untagged, initiator Met removed; chain copies: 2 inferred; label: 32P fill-in; BamHI/BglII overhangs
NF-IL6 TCD V267A, sequence (P17676 other isoform, or with tags, fused parts or gaps V267A | V267A V267A): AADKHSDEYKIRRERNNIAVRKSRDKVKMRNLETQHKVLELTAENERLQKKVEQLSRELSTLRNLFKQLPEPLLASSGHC

NF-IL6 TCD WT (tryptic core domain, aa 266-345), sequence (P17676 other isoform, or with tags, fused parts or gaps): as the sequence (P17676 other isoform, or with tags, fused parts or gaps V267A | V267A V267A) above, with A2V counted along it
NF-IL6 TCD S271A, sequence (P17676 other isoform, or with tags, fused parts or gaps S271A | S271A S271A): as the sequence (P17676 other isoform, or with tags, fused parts or gaps V267A | V267A V267A) above, with A2V, S6A counted along it

Molecule | Kd [1] [nM] | Kd [2] [nM] | binding result (NF-IL6 TCD S271A) | binding result (NF-IL6 TCD V267A)
APRE DNA (site used in cited work) | 36 | 36 |  | 
APRE M6 (32P) (dsDNA) DNA 1: GATCCACCACAGTTGTGATTTCACAACCTGACCA DNA 2: TGGTCAGGTTGTGAAATCACAACTGTGGTGGATC |  |  | binds | binds
